Tests used:
[1] = target: T1, wild-type E. coli GalK (Escherichia coli, UniProt P0A6T3); format: biochemical
T1 construct: made in house
T1 sequence (P0A6T3 1-382): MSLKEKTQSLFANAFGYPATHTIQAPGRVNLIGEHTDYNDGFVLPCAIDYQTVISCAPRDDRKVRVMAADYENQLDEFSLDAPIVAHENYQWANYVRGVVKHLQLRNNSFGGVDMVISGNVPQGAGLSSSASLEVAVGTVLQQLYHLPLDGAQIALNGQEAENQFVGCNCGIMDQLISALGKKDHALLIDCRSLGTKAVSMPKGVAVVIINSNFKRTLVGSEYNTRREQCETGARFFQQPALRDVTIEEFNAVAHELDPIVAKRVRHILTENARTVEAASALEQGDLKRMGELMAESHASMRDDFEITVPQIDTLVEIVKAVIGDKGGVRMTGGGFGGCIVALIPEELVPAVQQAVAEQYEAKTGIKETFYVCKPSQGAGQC
Excerpt: (§1) Characterization of GalK Mutants. […] The mutant enzymes were purified by using metal affinity chromatography on Ni-NTA Spin Columns (QIAGEN, Valencia, Calif.) and fractions containing homogenous protein were collected, concentrated and quantified using the Bradford protein assay. The DNS assay was used to assess the substrate specificity of the purified GalK mutants as previously described. […] For each sugar, the DNS assay was used to monitor the reaction progress and control assays in the absence of enzyme or sugar were performed in parallel. Standard curves for each sugar were prepared as described. To assess general percent conversion, each reaction contained 15.0 (M enzyme, 8 mM sugar, 14 mM ATP and 3.5 mM MgCl2. The reactions were incubated at 37° C. for 3 hrs after which the reactions were quenched with MeOH, centrifuged (10 min, 12,000 rpm) and then the supernatant (diluted 20-fold) submitted for LC-MS and MS/MS analysis. For monosaccharide kinetic data determination, the sugar concentration was varied over a range of 1-8 mM, under saturating ATP (14 mM). Reaction progress was assessed via the DNS assay, wherein a change in absorbance at 575 nm as a function of time was obtained and the initial velocity determined by the slope of the linear phase in the progress curve. The kinetic data was analyzed using Enzyme Kinetics Module software (SSPS, Inc., Chicago, Ill.) as previously described.
(§2) Characterization of Engineered E. coli GalK Mutants.

[2] = target: T2, E. coli double M173L-Y371H mutant GalK (Escherichia coli, UniProt P0A6T3, M173L/Y371H); assay: Substrate screen / percent conversion of 45 sugars, M173L-Y371H; format: biochemical
T2 construct: His-tag (concluded from Ni-NTA purification and vector pET15b); made in house
Excerpt: as §1, with “The reactions were incubated at 37° C. for 3 hrs after which the reactions were quenched with MeOH, centrifuged (10 min, 12,000 rpm) and then the supernatant (diluted 20-fold) submitted for LC-MS and MS/MS analysis.” left out
as §2

[3] = target: T3, L. lactis wild-type GalK (Lactococcus lactis subsp. lactis, UniProt Q9R7D7); conditions: in vitro; cited from earlier work
T3 sequence (Q9R7D7 1-399): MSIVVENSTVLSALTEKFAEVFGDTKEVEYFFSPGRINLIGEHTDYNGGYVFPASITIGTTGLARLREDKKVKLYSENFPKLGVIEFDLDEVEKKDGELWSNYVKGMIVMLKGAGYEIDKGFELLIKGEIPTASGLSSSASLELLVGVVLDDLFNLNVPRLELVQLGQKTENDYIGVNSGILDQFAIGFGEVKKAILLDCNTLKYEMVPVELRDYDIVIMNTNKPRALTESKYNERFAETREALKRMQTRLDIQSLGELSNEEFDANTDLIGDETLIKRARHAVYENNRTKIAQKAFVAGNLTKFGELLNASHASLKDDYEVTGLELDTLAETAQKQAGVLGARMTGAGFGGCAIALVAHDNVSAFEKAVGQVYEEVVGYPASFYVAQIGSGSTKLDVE

[4] = tested on: CC1OC(O)C(O)C(O)C1O; assay: purified protein, by the assay type; conditions: other: sugar 1-16 mM, saturating ATP (15 mM)
[5] = tested on: NC1C(O)OC(CO)C(O)C1O; assay: purified protein, by the assay type; conditions: other: sugar 1-16 mM, saturating ATP (15 mM)
[6] = tested on: NCC1OC(O)C(O)C(O)C1O; assay: purified protein, by the assay type; conditions: other: sugar 1-16 mM, saturating ATP (15 mM)
[7] = tested on: O=C(O)C1OC(O)C(O)C(O)C1O; assay: purified protein, by the assay type; conditions: other: sugar 1-16 mM, saturating ATP (15 mM)
[8] = tested on: O=C[C@H](O)C[C@@H](O)[C@H](O)CO; assay: purified protein, by the assay type; conditions: other: sugar 1-16 mM, saturating ATP (15 mM)
[9] = tested on: OCC1OC(O)CC(O)C1O; assay: purified protein, by the assay type; conditions: other: sugar 1-16 mM, saturating ATP (15 mM)
[10] = target: T4, E. coli GalK M173L mutant (Escherichia coli, UniProt P0A6T3, M173L); assay: Substrate screen / percent conversion of 45 sugars, M173L; format: biochemical
T4 construct: His-tag (concluded from Ni-NTA purification and vector pET15b); made in house
Excerpt: as §1, §2

[11] = target: T5, E. coli GalK Y371H mutant (Escherichia coli, UniProt P0A6T3, Y371H); format: biochemical
T5 construct: His-tag (concluded from Ni-NTA purification and vector pET15b); made in house; host or cells: E. coli BL21-Gold (DE3), vector pET15b
Excerpt: as §1, §2

[12] = target: T6, Y371H-M173L GalK (Escherichia coli, UniProt P0A6T3, M173L/Y371H); assay: In vivo conversion of fed unnatural sugars to sugar-1-phosphates in E. coli host overexpressing GalK double mutant; format: cell-based; conditions: sugar fed at 4 mM to E. coli overexpressing Y371H-M173L GalK, 16° C., 16 hr; fluorescence HPLC after labelling with 50
T6 construct: His-tag (concluded: same plasmid pGalKMLYH in pET-15b whose product was purified on Ni-NTA); expressed in transfected cells; host or cells: E. coli host carrying pGalKMLYH (pET-15b), IPTG-induced at 16 °C
Excerpt: FIG. 9. In vivo GalK-catalyzed sugar-1-phosphate production. (a) Experimental overview using 6-azido-6-deoxy-D-galactose (22) as an example: 22 is fed to an E. coli host expressing the M173L-Y371H GalK double mutant and the reactants and products subsequently labeled using a […] with the fluorescent tag 50. (b) HPLC chromatographs of bioconversions: i)22 with Y371H-M173L GalK; ii)46 with Y371H-M173L GalK; iii) 22 with wild-type GalK. MS: 50, calculated for C20H25N3O3S 387.2, found m/z 386.1 [M−H]^−; 51, calculated for C26H37N6O11PS 672.2, found m/z 671.2 [M−H]^−; 52, calculated for C26H36N6O8S 592.2, found m/z 591.2 [M−H]
In Vivo Conversion Analysis. […] The reaction mixture was subsequently centrifuged to remove CuI and the supernatant (diluted 2-fold) directly analyzed by HPLC and LC-MS calculated for C26H37N6O11PS 672.20, found m/z […] 671.20.
To assess the Y371H-M173L GalK-catalyzed in vivo production of unnatural sugar-1-phosphates (FIG. 9a), the unnatural sugars (22 or 46, 4 mM final concentration) were fed to an E. coli host (40 mL culture) which overexpressed the promiscuous GalK. After a designated time, the extracts were analyzed via the specific attachment of a fluorescent tag (50), to both starting material (22 or 46) and desired sugar-1-phosphate products, using 1,3-dipolar cycloaddition. […]

[13] = target: GalK mutant Y371H (Escherichia coli, UniProt P0A6T3, Y371H); conditions: sugar 1-16 mM, saturating ATP (15 mM)
[14] = substrate: CC1OC(O)C(O)C(O)C1O; assay: Kinetics and substrate specificity of wild-type GalK with sugar substrates (DNS assay), Table 1; format: biochemical, E. coli; conditions: other: sugar 1-16 mM, saturating ATP (15 mM)
[15] = substrate: NC1C(O)OC(CO)C(O)C1O; assay: as above; format: biochemical, E. coli; conditions: other: sugar 1-16 mM, saturating ATP (15 mM)
[16] = substrate: O=C[C@H](O)C[C@@H](O)[C@H](O)CO; assay: as above; format: biochemical, E. coli; conditions: other: sugar 1-16 mM, saturating ATP (15 mM)
[17] = substrate: OCC1OC(O)CC(O)C1O; assay: as above; format: biochemical, E. coli; conditions: other: sugar 1-16 mM, saturating ATP (15 mM)

T2 sequence (P0A6T3 whole entry M173L/Y371H): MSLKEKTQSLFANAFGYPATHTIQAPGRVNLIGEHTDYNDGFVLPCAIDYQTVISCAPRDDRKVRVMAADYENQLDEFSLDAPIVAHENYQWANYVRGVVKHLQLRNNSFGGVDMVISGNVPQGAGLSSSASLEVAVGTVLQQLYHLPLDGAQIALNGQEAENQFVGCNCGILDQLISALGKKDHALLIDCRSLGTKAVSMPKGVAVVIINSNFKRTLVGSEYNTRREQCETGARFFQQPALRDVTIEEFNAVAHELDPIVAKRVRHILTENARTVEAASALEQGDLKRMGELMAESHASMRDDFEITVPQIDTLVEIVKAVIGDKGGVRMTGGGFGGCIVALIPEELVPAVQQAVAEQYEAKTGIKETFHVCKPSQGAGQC
GalK mutant Y371H, sequence (P0A6T3 whole entry Y371H): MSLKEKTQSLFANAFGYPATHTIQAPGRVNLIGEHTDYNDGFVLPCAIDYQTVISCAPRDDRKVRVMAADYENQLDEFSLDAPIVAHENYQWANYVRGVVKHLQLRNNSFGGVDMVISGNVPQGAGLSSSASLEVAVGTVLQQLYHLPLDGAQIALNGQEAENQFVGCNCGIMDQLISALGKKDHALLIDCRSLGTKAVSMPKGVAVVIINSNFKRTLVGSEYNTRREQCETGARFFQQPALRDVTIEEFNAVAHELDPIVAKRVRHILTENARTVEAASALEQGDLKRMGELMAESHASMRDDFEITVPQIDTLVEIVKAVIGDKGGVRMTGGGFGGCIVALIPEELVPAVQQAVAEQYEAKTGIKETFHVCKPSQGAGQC
T6 sequence (P0A6T3 whole entry M173L/Y371H): as the sequence (P0A6T3 whole entry M173L/Y371H) above
T4 sequence (P0A6T3 whole entry M173L): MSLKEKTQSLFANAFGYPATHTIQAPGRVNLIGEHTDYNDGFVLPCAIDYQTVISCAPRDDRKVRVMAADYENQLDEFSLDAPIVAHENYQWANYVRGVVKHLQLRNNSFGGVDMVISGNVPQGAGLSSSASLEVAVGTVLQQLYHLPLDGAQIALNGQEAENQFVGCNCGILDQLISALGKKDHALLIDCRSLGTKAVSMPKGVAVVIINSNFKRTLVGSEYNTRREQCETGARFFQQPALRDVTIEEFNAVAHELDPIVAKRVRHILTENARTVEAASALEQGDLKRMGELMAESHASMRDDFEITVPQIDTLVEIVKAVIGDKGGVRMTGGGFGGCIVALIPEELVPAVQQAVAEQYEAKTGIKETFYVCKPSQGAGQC
T5 sequence (P0A6T3 whole entry Y371H): as the sequence (P0A6T3 whole entry Y371H) above

[N-]=[N+]=N[C@H]([C@H](O)[C@@H](O)C=O)[C@H](O)CO [4-azido-4-deoxy-D-galactose (21), 4-azido-4-deoxy-D-galactose]
substrate of wild-type E. coli GalK (in words) [1]: not a substrates
kinase activity of M173L-Y371H double mutant (in words) [2]: accept
conversion / activity with L. lactis wild-type GalK (in words) [3]: in vitro conversion

GalK mutant Y371H (Escherichia coli K-12; Y371H)
Km [4]: 8.0 mM
kcat [4]: 1.68 s⁻¹
kcat/Km [4]: 210 M⁻¹ s⁻¹
Km [5]: 8.8 mM
kcat [5]: 4.33 s⁻¹
kcat/Km [5]: 492 M⁻¹ s⁻¹
Km [6]: 21.3 mM
kcat [6]: 2.48 s⁻¹
kcat/Km [6]: 117 M⁻¹ s⁻¹
Km [7]: 3.2 mM
kcat [7]: 0.967 s⁻¹
kcat/Km [7]: 302 M⁻¹ s⁻¹
Km [8]: 10.1 mM
kcat [8]: 1.08 s⁻¹
kcat/Km [8]: 107 M⁻¹ s⁻¹
Km [9]: 4.7 mM
kcat [9]: 3.33 s⁻¹
kcat/Km [9]: 710 M⁻¹ s⁻¹

[N-]=[N+]=NC[C@@H](O)[C@@H](O)[C@H](O)[C@@H](O)C=O [6-azido-6-deoxy-D-glucose (46), 6-azido-6-deoxy-D-glucose]
substrate of M173L (in words) [10]: failed
substrate of Y371H (in words) [11]: failed
substrate of wild-type E. coli GalK (in words) [1]: not a substrates
kinase activity of M173L-Y371H double mutant (in words) [2]: accept
in vitro yield (conversion) quoted for comparison with in vivo ([2]; in vitro): ~50%
in vitro conversion by M173L-Y371H ([2]; in vitro, in 2 hrs): ~15%
in vivo conversion to sugar-1-phosphate [12]: ~15%

O=C[C@@H](O)[C@H](O)[C@@H](O)[C@@H](O)CO [L-Glc (25), L-glucose]
Km ([13]; read-out: Km, Y371H): 2.7 mM
kcat, Y371H [13]: 1.08 s⁻¹

O=C[C@H](O)[C@@H](O)C[C@H](O)CO [4-deoxy-D-galactose (25), 4-deoxy-D-galactose]
conversion / activity with L. lactis wild-type GalK (in words) [3]: in vitro conversion

B1: wild-type E. coli GalK (Escherichia coli K-12) (protein)
chain: T1 sequence (P0A6T3 1-382)
notes: made in house
Km [14]: 4.9 mM
kcat [14]: 0.0483 s⁻¹
kcat/Km [14]: 9.83 M⁻¹ s⁻¹
Km [15]: 2.9 mM
kcat [15]: 0.195 s⁻¹
kcat/Km [15]: 66.7 M⁻¹ s⁻¹
Km [16]: 6.4 mM
kcat [16]: 0.085 s⁻¹
kcat/Km [16]: 13 M⁻¹ s⁻¹
Km [17]: 3.6 mM
kcat [17]: 0.5 s⁻¹
kcat/Km [17]: 138 M⁻¹ s⁻¹

— patent US7479385B2, “Sugar kinases with expanded substrate specificity and their use” (Wisconsin Alumni Research Foundation, priority 2003, dated 2009)
